From patent US20080146500A1, “Selective Vpac2 Receptor Peptide Agonists” (priority 2004, published 2008)
Changes are numbered by the printed parent chain. Ends that are not written are not given here. * marks the point of attachment. Hexanoyl = CCCCCC(=O)*

Key:
Normal Wistar rats = experiment: Intravenous glucose tolerance test (IVGTT), serum glucose and insulin; format: in vivo, rat; conditions: Dose = 10 μg/kg iv, time between glucose & compound 0 h
Protocol: Intravenous glucose tolerance test (IVGTT): Normal Wistar rats are fasted overnight and are anesthetized prior to the experiment. A blood sampling catheter is inserted into the rats. The compound is given in the jugular vein. Blood samples are taken from the carotid artery. A blood sample is drawn immediately prior to the injection of glucose along with the compound. After the initial blood sample, glucose mixed with compound is injected intravenously (i.v.). Compound may also be injected intravenously or subcutaneously prior to the glucose challenge. A glucose challenge of 0.5 g/kg body weight is given, injecting a total of 1.5 mL vehicle with glucose and agonist per kg body weight. The peptide concentrations are varied to produce the desired dose in μg/kg. Blood samples are drawn at 2, 4, 6 and 10 minutes after giving glucose. The control group of animals receives the same vehicle along with glucose, but with no compound added. In some instances, a 30 minute post-glucose blood sample is drawn. Aprotinin is added to the blood sample (250-500 kIU/ml blood). The serum is then analyzed for glucose and insulin using standard methodologies.
The assay uses a formulated and calibrated peptide stock in PBS. Normally, this stock is a prediluted 100 μM stock. However, a more concentrated stock with approximately 1 mg agonist per 1 mL is used. The specific concentration is always known. Variability in the maximal response is mostly due to variability in the vehicle dose.

human VPAC1 = molecular target: T1, human VPAC1 (Homo sapiens, UniProt P32241); experiment: Filter binding assay, membranes from cells transiently transfected with human VPAC1, 125I-labeled VIP tracer; conditions: read-out: Human receptor binding (IC50; nM) VPAC1
T1 construct: expressed in transfected cells
T1 sequence (P32241 31-457): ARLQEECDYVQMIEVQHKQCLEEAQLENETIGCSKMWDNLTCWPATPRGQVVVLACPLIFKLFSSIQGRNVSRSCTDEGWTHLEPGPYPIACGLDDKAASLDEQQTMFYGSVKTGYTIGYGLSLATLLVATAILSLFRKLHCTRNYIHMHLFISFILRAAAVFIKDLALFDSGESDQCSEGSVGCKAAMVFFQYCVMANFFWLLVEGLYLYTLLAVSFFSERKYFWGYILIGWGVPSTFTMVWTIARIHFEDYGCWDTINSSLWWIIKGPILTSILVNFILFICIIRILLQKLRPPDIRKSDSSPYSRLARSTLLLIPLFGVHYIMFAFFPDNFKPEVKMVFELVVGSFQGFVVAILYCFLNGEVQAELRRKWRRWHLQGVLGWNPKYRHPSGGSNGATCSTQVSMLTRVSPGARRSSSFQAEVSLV
Protocol: (§1) For this assay, the solutions and equipment include:
(§2) Presoak solution: 0.5% Polyethyleneamine in Aqua dest.
(§3) Buffer for flushing filter plates: 25 mM HEPES pH 7.4
(§4) Blocking buffer: 25 mM HEPES pH 7.4; 0.2% protease free BSA
(§5) Assay buffer: 25 mM HEPES pH 7.4; 0.5% protease free BSA
(§6) Dilution and assay plate: PS-Microplate, U form
(§7) Filtration Plate Multiscreen FB Opaque Plate; […] Type B Glasfiber filter
(§8) In order to prepare the filter plates, the presoak solution is aspirated by vacuum filtration. The plates are flushed twice with 200 μL flush buffer. 200 μL blocking buffer is added to the filter plate. The filter plate is then incubated with 200 μL presoak solution for 1 hour at room temperature.
(§9) The assay plate is filled with […] (2.5 μg) suspended in assay buffer, 25 μL compound (agonist) in assay buffer, and 25 μL tracer (about 40000 cpm) in assay buffer. The filled plate is incubated for 1 hour with shaking.
(§10) The transfer from assay plate to filter plate is conducted. The blocking buffer is aspirated by vacuum filtration and washed two times with flush buffer. 90 μL is transferred from the assay plate to the filter plate. The 90 μL transferred from assay plate is aspirated and washed three times with 200 μL flush buffer. The plastic support is removed. It is dried for 1 hour at 60° C. 30 μL Microscint is added. The count is performed.
(§11) Values reported are single results or the mean of two or more independent runs.

human PAC1 = molecular target: T2, human PAC1 (Homo sapiens, UniProt P41586); experiment: Filter binding assay, membranes from cells transiently transfected with human PAC1, 125I-labeled PACAP-27 tracer; conditions: read-out: Human receptor binding (IC50; nM) PAC1
T2 construct: expressed in transfected cells
T2 sequence (P41586 21-468): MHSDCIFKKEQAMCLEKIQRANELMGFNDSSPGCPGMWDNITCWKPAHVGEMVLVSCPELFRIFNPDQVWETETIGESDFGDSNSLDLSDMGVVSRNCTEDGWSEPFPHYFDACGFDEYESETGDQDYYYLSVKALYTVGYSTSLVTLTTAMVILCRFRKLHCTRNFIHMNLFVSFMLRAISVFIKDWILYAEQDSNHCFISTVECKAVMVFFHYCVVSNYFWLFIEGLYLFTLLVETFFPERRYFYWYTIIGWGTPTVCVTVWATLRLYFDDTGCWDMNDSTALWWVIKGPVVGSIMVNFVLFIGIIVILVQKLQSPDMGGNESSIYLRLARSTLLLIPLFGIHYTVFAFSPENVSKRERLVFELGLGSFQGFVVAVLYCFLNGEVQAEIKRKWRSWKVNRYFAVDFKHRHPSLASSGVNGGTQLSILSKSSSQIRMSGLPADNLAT
Protocol: as §1, §2, §3, §4, §5, §6, §7, §8, §9, §10, §11

rat VPAC1 receptor = molecular target: T3, rat VPAC1 receptor (Rattus norvegicus, UniProt P30083); experiment: Rat VPAC1 in vitro potency (cAMP generation, DiscoveRx) in transiently transfected CHO-PO cells; format: cell-based; conditions: CHO-PO cells transiently transfected with rat VPAC1; read-out: rVPAC1 in vitro potency (cAMP generation) EC50
T3 construct: expressed in transfected cells; host or cells: CHO-PO cells, transient
T3 sequence (P30083 31-459): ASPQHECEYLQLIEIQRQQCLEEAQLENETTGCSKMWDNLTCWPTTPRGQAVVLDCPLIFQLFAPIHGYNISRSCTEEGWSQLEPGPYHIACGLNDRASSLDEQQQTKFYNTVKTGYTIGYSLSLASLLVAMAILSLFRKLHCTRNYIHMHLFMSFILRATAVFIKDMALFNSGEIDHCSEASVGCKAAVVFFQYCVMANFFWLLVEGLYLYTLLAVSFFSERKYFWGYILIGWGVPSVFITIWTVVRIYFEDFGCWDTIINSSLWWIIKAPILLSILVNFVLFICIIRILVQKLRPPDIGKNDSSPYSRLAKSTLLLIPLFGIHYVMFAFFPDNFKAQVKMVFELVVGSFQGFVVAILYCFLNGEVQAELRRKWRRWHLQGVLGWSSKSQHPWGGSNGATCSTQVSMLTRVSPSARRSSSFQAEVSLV
Protocol: (§12) Rat receptor selectivity is estimated by comparing functional potency (cAMP generation) in CHO-PO cells transiently expressing rat VPAC1 or rat VPAC2 receptors. CHO-PO cells transiently expressing rat VPAC1 or VPAC2, are seeded with 10,000 cells/well three days before the assay. The cells are kept in 200 μL culture medium. […] The stimuli are present for 30 minutes. The assay buffer is then gently removed.

[1] = Pharmacokinetic profiles of PEGylated peptides, plasma peptide by RIA; format: in vivo, Fisher 344 rats; conditions: Fisher 344 rats, 100 μg compound/kg, plasma RIA, mean N = 3
Protocol: Pharmacokinetic profiles of PEGylated peptides. Healthy Fisher 344 rats (3 animals per group) are injected with 100 μg compound/kg (compound amount based on peptide content and dissolved in PBS buffer). […] PK parameters are then calculated using a model-independent method (WinNonlin Pro, Pharsight Corp., Mountain View, Calif., USA).

rat VPAC2 receptor = molecular target: T4, rat VPAC2 receptor (Rattus norvegicus, UniProt P35000); experiment: Rat VPAC2 in vitro potency (cAMP generation, DiscoveRx) in transiently transfected CHO-PO cells; format: cell-based; conditions: CHO-PO cells transiently transfected with rat VPAC2; read-out: rVPAC2 in vitro potency (cAMP generation) EC50
T4 construct: expressed in transfected cells; host or cells: CHO-PO cells, transient
T4 sequence (P35000 23-437): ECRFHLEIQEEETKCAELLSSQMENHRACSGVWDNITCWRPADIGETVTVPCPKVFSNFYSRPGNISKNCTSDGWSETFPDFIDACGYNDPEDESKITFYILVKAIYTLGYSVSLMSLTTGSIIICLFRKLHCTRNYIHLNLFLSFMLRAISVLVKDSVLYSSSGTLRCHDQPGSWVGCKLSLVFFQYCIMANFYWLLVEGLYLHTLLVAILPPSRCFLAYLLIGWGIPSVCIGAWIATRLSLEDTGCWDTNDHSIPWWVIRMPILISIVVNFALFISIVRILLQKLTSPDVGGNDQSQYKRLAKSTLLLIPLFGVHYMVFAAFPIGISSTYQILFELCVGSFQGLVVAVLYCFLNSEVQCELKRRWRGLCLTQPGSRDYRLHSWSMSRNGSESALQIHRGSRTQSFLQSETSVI
Protocol: as §12

human VPAC2 [2] = molecular target: T5, human VPAC2 (Homo sapiens, UniProt P41587); experiment: Filter binding assay, membranes from stable VPAC2 cell line, 125I-labeled VIP tracer; conditions: read-out: Human receptor binding (IC50; nM) VPAC2
T5 construct: expressed in transfected cells
T5 sequence (P41587 24-438): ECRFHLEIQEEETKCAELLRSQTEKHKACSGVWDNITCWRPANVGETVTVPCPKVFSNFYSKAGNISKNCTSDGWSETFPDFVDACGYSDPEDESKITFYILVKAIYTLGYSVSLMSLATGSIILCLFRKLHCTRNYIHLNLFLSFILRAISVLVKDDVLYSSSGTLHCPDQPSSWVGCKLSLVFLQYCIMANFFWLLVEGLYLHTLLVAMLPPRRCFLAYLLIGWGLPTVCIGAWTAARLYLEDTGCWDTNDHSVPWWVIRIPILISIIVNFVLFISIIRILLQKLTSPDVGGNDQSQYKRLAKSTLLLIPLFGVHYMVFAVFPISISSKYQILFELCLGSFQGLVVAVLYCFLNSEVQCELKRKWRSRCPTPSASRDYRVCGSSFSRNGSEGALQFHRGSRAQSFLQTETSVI
Protocol: as §1, §2, §3, §4, §5, §6, §7, §8, §9, §10, §11

human VPAC2 [3] = molecular target: T5, human VPAC2; experiment: Alpha screen in vitro potency: human VPAC2-R mediated cAMP generation; format: cell-based; conditions: single results or mean of two or more independent runs
human VPAC2 receptor [4] = molecular target: T6, human VPAC2 receptor (human, UniProt P41587 24-438); experiment: filter binding, VPAC2 membranes, 125I-VIP tracer
T6 construct: whole, on cells
T6 sequence (looked up): T5 sequence (P41587 24-438)
Protocol: The assay plate is filled with 25 mL assay buffer, 25 mL membranes (2.5 μg) suspended in assay buffer, 25 μL compound (agonist) in assay buffer, and 25 μL tracer (about 40000 cpm) in assay buffer. The filled plate is incubated for 1 hour with shaking.

human VPAC2 receptor [5] = molecular target: T6, human VPAC2 receptor; experiment: cell-based or functional assay
[6] = molecular target: T7, human VPAC2 receptor (human), P41587; experiment: cell-based or functional assay
T7 chain: T5 sequence (P41587 24-438)

[7] = molecular target: T8, rat VPAC2 receptor (rat), P35000; experiment: cell-based or functional assay
T8 chain: T4 sequence (P35000 23-437)

[8] = molecular target: T9, rat VPAC1 receptor (rat), P30083; experiment: cell-based or functional assay
T9 chain: T3 sequence (P30083 31-459)

[9] = molecular target: T10, human VPAC1 receptor (human), P32241; experiment: filter binding, VPAC1 membranes, 125I-VIP tracer
T10 chain: T1 sequence (P32241 31-457)

[10] = molecular target: T7, human VPAC2 receptor (human), P41587; experiment: filter binding, VPAC2 membranes, 125I-VIP tracer

Molecule: C6-HSDAVFTDNYTRLLAKLALQKYLQSIKNKRYGGPSSGAPPPC(PEG40K) (Hexanoyl-HSDAVFTDNYTRLLAKLALQKYLQSIKNKRYGGPSSGAPPPC(PEG 40 kDa)) [Agonist P190, PEGylated peptide obtained from P164 and methoxy-PEG2-MAL-40K]
- % increase AUC (insulin, 0-10 min after glucose) (Normal Wistar rats): +73%
- IC50 (human VPAC1): > 3000 nM
- IC50 (human PAC1): > 25000 nM

Molecule: C6-HSDAVFTDNYThRLRAibQVAAAibKYLQSIhRNhRhRYGGPSSGAPPPC(PEG40K)-NH2 (HSDAVFTDNYTXLRXQVAAXKYLQSIXNXXYGGPSSGAPPPC; non-natural residues) [Agonist P340]
- IC50 (human VPAC1): > 3000 nM
- EC50 (rat VPAC1 receptor): 116 nM
- AUC0-last [1]: 515 ng·h/mL
- Cmax [1]: 44 ng/mL
- Tmax [1]: 6 h
- EC50 (rat VPAC2 receptor): 4 nM
- IC50 (human PAC1): > 25000 nM
- IC50 (human VPAC2 [2]): 4.76 nM
- EC50 (human VPAC2 [3]): 7.74 nM

B1: P190 (peptide)
peptide: Hexanoyl-HSDAVFTDNYTRLLAKLALQKYLQSIKNKRYGGPSSGAPPPC(PEG 40 kDa)
notes: T0013 drops Thr 11 (print error); also called PEGylated P164
- IC50 (human VPAC2 receptor [4]): 4.44 nM
- cAMP generation (EC50), Alpha screen (human VPAC2 receptor [5]): 2.14 nM

B2: P137 (peptide)
peptide: HSDAVFTDNYTRLRKQVAAKKYLQSIKNKRYGGPSSGAPPPC
modifications: not checked
- cAMP generation (EC50), Alpha screen [6]: 8.31 nM
- cAMP generation (EC50), DiscoveRx, CHO-PO cells [7]: 8 nM
- cAMP generation (EC50), DiscoveRx, CHO-PO cells [8]: 29.7 nM
- IC50 [9]: 853 nM
- IC50 [10]: 0.64 nM

B3: P219 (peptide)
peptide: HSDAVFTDNYTRLRRQVAAKRYLQSIRNGGPSSGAPPPS
modifications: not checked
- cAMP generation (EC50), Alpha screen [6]: 25.5 nM
- IC50 [10]: 67.9 nM

B4: P247 (peptide)
peptide: B3 peptide with K20R, R21K
modifications: not checked
- cAMP generation (EC50), Alpha screen [6]: 133 nM
- IC50 [10]: 353 nM

B5: P245 (peptide)
peptide: B3 peptide with R15K, K20R
modifications: not checked
- cAMP generation (EC50), Alpha screen [6]: 450 nM
- IC50 [10]: 921 nM
